Laboratory results taken from patent US20180171001A1.

B1: γ3κ11 (antibody, V domains shown)
VH: QIHLVQSGTEVKKPGSSVTVSCKAYGVNTFGLYAVSWVRQAPGQRLEYIGQIRRWKSSASHHFRGRVTVSAVDPTGSSPPISSLEIRDLTTDDTAVYFCTTTSTSDYWSGLHNERGTAFSSWGQGTLISVSA
VL: DIQMTQSPSTLSASVGGTVRISCRASQSITGGWLAWYHQRPGKAPRLLIYRGSRLLGGVPSRFSGSAAGTDFTLTIANLQAEDFGTFYCQQYDTYPGTFGQGTKVEVKR
B2: γ15κ11 (antibody, V domains shown)
VH: QIHLVQSGTEVKKPGSSVTVSCKAYGVNTFGLYAVNWVRQAPGQSLEYIGQIWRWKSSASHHFRGRVIISAVDLTGSSPPISSLEIKNLTSDDTAVYFCTTASTYDKWSGLHHDGVMAFSSWGQGTLISVSA
VL: DIQMTQSPSTLSASVGGTVRISCRASQSITGGWLAWYHQRPGKAPRLLIYRGSRLLGGVPSRFSGSAAGTDFTLTIANLQAEDFGTFYCQQYDTYPGTFGQGTKVEVKR
B3: γ20κ11 (antibody, V domains shown)
VH: QIHLVQSGTEVKKPGSSVAVSCKAYGVNTFGLYAVNWVRQAPGQSLEYIGQIWRWKSSASHDFRGRVIISAVDLTGSSPPISSLEIKNLTSDDTAVYFCTATSTPDYWSGLHHDGVMAFSSWGQGTLISVSA
VL: DIQMTQSPSTLSASVGGTVRISCRASQSITGGWLAWYHQRPGKAPRLLIYRGSRLLGGVPSRFSGSAAGTDFTLTIANLQAEDFGTFYCQQYDTYPGTFGQGTKVEVKR
B4: γ22κ11 (antibody, V domains shown)
VH: QIHLVQSGTEVKKPGSSVTVSCKAYGVNTFGLYAVNWVRQAPGQSLEYIGQIWRWKSSASHHFRGRVLISAVDLTGPSPPISSLEIKNLTSDDTAVYFCTTTSTYDKWSGLHHDGVMAFSSWGQGTLISVSA
VL: DIQMTQSPSTLSASVGGTVRISCRASQSITGGWLAWYHQRPGKAPRLLIYRGSRLLGGVPSRFSGSAAGTDFTLTIANLQAEDFGTFYCQQYDTYPGTFGQGTKVEVKR
B5: γ23κ11 (antibody, V domains shown)
VH: QIHLVQSGTEVKKPGSSVTVSCKAYGVNTFGLYAVNWVRQAPGQSLEYIGQIWRWKSSASHHFRGRVIISAVDLTGSSPPISSLEIKNLTSDDTAVYFCTTTSTSDYWSGLHHDGVMAFSSWGQGTLISVSA
VL: DIQMTQSPSTLSASVGGTVRISCRASQSITGGWLAWYHQRPGKAPRLLIYRGSRLLGGVPSRFSGSAAGTDFTLTIANLQAEDFGTFYCQQYDTYPGTFGQGTKVEVKR
B6: γ44κ11 (antibody, V domains shown)
VH: QIHLVQSGTEVKKPGSSVTVSCKAYEVNTFGLYAVNWVRQAPGQSLEYIGQIWRWKSSASHHFRGRVLISAVDLTGSSPPISSLEIKNVTSDDTAVYFCTTTSTHDKWSGLHHDGVMAFSSWGQGTLISVSA
VL: DIQMTQSPSTLSASVGGTVRISCRASQSITGGWLAWYHQRPGKAPRLLIYRGSRLLGGVPSRFSGSAAGTDFTLTIANLQAEDFGTFYCQQYDTYPGTFGQGTKVEVKR
B7: γ46κ11 (antibody, V domains shown)
VH: QIHLVQSGTEVKKPGSSVTVSCKAYGVNTFGLYAVNWVRQAPGQGLEYIGQIWRWKSSASHHFRGRVLISAVDLTGSSPPISSLEIKNVTSDDTAVYFCTTTSTYDKWSGLHHDGVVAFSSWGQGTLISVSA
VL: DIQMTQSPSTLSASVGGTVRISCRASQSITGGWLAWYHQRPGKAPRLLIYRGSRLLGGVPSRFSGSAAGTDFTLTIANLQAEDFGTFYCQQYDTYPGTFGQGTKVEVKR
B8: γ52κ11 (antibody, V domains shown)
VH: QIHLVQSGTEVKKPGSSVTVSCKAYGVNTFGLYAVNWVRQAPGQSLEYIGQIWRWKSSASHHFRGRVLISAVDLTGSSPPISSLEIKNLTSDDTAVYFCTTTSTYDRWSGLHHDGVMAFSSWGQGTLISVSA
VL: DIQMTQSPSTLSASVGGTVRISCRASQSITGGWLAWYHQRPGKAPRLLIYRGSRLLGGVPSRFSGSAAGTDFTLTIANLQAEDFGTFYCQQYDTYPGTFGQGTKVEVKR
B9: γ59κ11 (antibody, V domains shown)
VH: QIHLVQSGTEVKKPGSSVTVSCKAYGVNTFGLYAVNWVRQAPGQGLEYIGQIWRWKSSASHHFRGRVLISAVDLTGSSPPISSLEIKNVTSDDTAVYFCTTTSTYDEWSDLHHDGVMAFSSWGQGTLISVSA
VL: DIQMTQSPSTLSASVGGTVRISCRASQSITGGWLAWYHQRPGKAPRLLIYRGSRLLGGVPSRFSGSAAGTDFTLTIANLQAEDFGTFYCQQYDTYPGTFGQGTKVEVKR

Tests used:
Test in all cases: cell-based or functional assay
[1] = biological target: Env of HIV-1 strain 231965.c1 (HIV-1)
[2] = biological target: Env of HIV-1 strain 250-4 (HIV-1)
[3] = biological target: Env of HIV-1 strain 251-18 (HIV-1)
[4] = biological target: Env of HIV-1 strain 3016.v5.c45 (HIV-1)
[5] = biological target: Env of HIV-1 strain 3365.v2.c20 (HIV-1)
[6] = biological target: Env of HIV-1 strain 3415.v1.c1 (HIV-1)
[7] = biological target: Env of HIV-1 strain Du172.17 (HIV-1)
[8] = biological target: Env of HIV-1 strain H086.8 (HIV-1)
[9] = biological target: Env of HIV-1 strain PVO.4 (HIV-1)
[10] = biological target: Env of HIV-1 strain R1166.c1 (HIV-1)
[11] = biological target: Env of HIV-1 strain REJO4541.67 (HIV-1)
[12] = biological target: Env of HIV-1 strain X1254_c3 (HIV-1)
[13] = biological target: Env of HIV-1 strain YU2.DG (HIV-1)
[14] = biological target: Env of HIV-1 strain ZM109F.PB4 (HIV-1)
[15] = biological target: Env of HIV-1 strain ZM53M.PB12 (HIV-1)
[16] = biological target: Env of MuLV

Binder	neutralization IC50 [1] [mg/L]	neutralization IC50 [2] [mg/L]	neutralization IC50 [3] [mg/L]	neutralization IC50 [4] [mg/L]	neutralization IC50 [5] [mg/L]	neutralization IC50 [6] [mg/L]	neutralization IC50 [7] [mg/L]	neutralization IC50 [8] [mg/L]	neutralization IC50 [9] [mg/L]	neutralization IC50 [10] [mg/L]	neutralization IC50 [11] [mg/L]	neutralization IC50 [12] [mg/L]	neutralization IC50 [13] [mg/L]	neutralization IC50 [14] [mg/L]	neutralization IC50 [15] [mg/L]	neutralization IC50 [16] [mg/L]
B1	0.455	> 15	> 15	0.145	> 15	> 15	> 15	0.778	0.074	1.79	0.091	2.31	0.276	> 15	> 15	> 30
B2	5.1	> 15	> 15	1.32	> 15	> 15	> 15	> 15	6.7	9.81	> 15	13.7	4.12	> 15	> 15	> 30
B3	> 15	> 15	> 15	> 15	> 15	> 15	> 15	> 15	> 15	20.2	> 15	7.5	> 15	> 15	> 15	> 30
B4	> 15	> 15	> 15	> 15	> 15	> 15	> 15	> 15	> 15	> 15	> 15	> 15	> 15	> 15	> 15	> 30
B5	0.543	> 15	2.49	0.159	> 15	> 15	11.3	> 15	0.103	1.61	0.14	1.7	0.34	> 15	> 15	> 30
B6	> 15	> 15	> 15	> 15	> 15	> 15	> 15	> 15	> 15	> 15	> 15	> 15	> 15	> 15	> 15	> 19
B7	2.95	> 15	> 15	1.93	> 15	> 15	> 15	> 15	2.92	3.39	> 15	5.68	2.1	> 15	> 15	> 30
B8	0.298	> 15	0.647	0.161	> 15	> 15	> 15	1.64	0.103	1.16	3.47	2.42	0.298	> 15	> 15	> 30
B9	> 15	> 15	> 15	> 15	> 15	> 15	> 15	> 15	> 15	12.6	1.57	4.67	6.91	> 15	> 15	> 30
